Publication PMC3839082

Target: hCINAP-H79G mutant (human) (UniProt Q9Y3D8)
Assay: SEC

hCINAP-H79G mutant (from UniProt Q9Y3D8 1-172) (enzyme)
stoichiometry N: 2
